Experimental findings from US20190300618A1 (Merck Sharp & Dohme, published 2019) are described below.

Experiment [1] addresses human CD27 (wild type), expressed on cells (human) (UniProt P26842). As to the kind of experiment: flow cytometry on primary T cells. In general terms: In flow cytometry, cells or beads pass a laser one at a time.
The target in another experiment is T1, W13A.
T1 construct: also called hCD27 W13A
T1 receptor: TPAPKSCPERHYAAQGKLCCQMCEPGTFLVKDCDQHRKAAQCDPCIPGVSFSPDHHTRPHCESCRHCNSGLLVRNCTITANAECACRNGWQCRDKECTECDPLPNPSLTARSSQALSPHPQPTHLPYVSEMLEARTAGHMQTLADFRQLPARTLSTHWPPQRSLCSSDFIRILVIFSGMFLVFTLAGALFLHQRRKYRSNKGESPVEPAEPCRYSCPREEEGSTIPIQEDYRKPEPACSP
As to the kind of experiment: flow cytometry, CHO-K1; single column.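 Further: CHO-K1 cells transiently transfected with hCD27 alanine mutant constructs, anti-hCD27 antibody binding measured by flow cytometry, 30 min at 4 °C, wild-type hCD27 binding taken as 100%.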

Another experiment deals with T2, H36A.
T2 construct: also called hCD27 H36A
T2 receptor: T1 receptor with A13W, H36A
Description: flow cytometry, CHO-K1; single column.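 Further: CHO-K1 cells transiently transfected with hCD27 alanine mutant constructs, anti-hCD27 antibody binding measured by flow cytometry, 30 min at 4 °C, wild-type hCD27 binding taken as 100%.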

For a further experiment, the target named is T3, H60A.
T3 construct: also called hCD27 H60A
T3 receptor: T1 receptor with A13W, H60A
As to the kind of experiment: flow cytometry, CHO-K1; single column.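 Further: CHO-K1 cells transiently transfected with hCD27 alanine mutant constructs, anti-hCD27 antibody binding measured by flow cytometry, 30 min at 4 °C, wild-type hCD27 binding taken as 100%.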

Another experiment addresses T4, Q15A.
T4 construct: also called hCD27 Q15A
T4 receptor: T1 receptor with A13W, Q15A
Description: flow cytometry, CHO-K1; single column.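 Further: CHO-K1 cells transiently transfected with hCD27 alanine mutant constructs, anti-hCD27 antibody binding measured by flow cytometry, 30 min at 4 °C, wild-type hCD27 binding taken as 100%.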

The target of the next experiment is T5, D43A.
T5 construct: also called hCD27 D43A
T5 receptor: T1 receptor with A13W, D43A
Description: flow cytometry, CHO-K1; single column.

In a further experiment the target is T6, P8A.
T6 construct: also called hCD27 P8A
T6 receptor: T1 receptor with P8A, A13W
As to the kind of experiment: flow cytometry, CHO-K1; single column.

In another experiment the target is T7, G16A.
T7 construct: also called hCD27 G16A
T7 receptor: T1 receptor with A13W, G16A
As to the kind of experiment: flow cytometry, CHO-K1; single column.

Another experiment has as its target T8, S63A.
T8 construct: also called hCD27 S63A
T8 receptor: T1 receptor with A13W, S63A
Description: flow cytometry, CHO-K1; single column.

A further experiment concerns the target T9, K17A.
T9 construct: also called hCD27 K17A
T9 receptor: T1 receptor with A13W, K17A
Description: flow cytometry, CHO-K1; single column.

The next experiment addresses T10, F28A.
T10 construct: also called hCD27 F28A
T10 receptor: T1 receptor with A13W, F28A
Description: flow cytometry, CHO-K1; single column.

Numbering of substitutions follows the chain as printed.

Description for D43A: (§1) The ability of several anti-hCD27 antibodies to bind to a series of hCD27 alanine mutants was determined using CHO-K1 cells, transiently transfected pCI-neo empty vector, pCI-neo.hCD27 and several pCI-neo.CD27Ala mutant constructs.
(§2) Detached cells were transferred to 96 wells round-bottomed well plates at approximately 1.2×10⁵ cells/well. After spinning down the cells, discarding the supernatants and re-suspending the cells in the residual volume, the primary antibodies were added and incubated for 30 minutes at 4° C. Cells were washed three times with DPBS/BSA 1%, followed by centrifugation, discarding of the supernatants and re-suspension in the residual volume. […] After washing once, antibody binding was detected using the HTS plate reader (FACS Canto II) and FlowJo software for data analysis. Debris, dead cells and doublets were excluded from the analysis. Binding was expressed as the geometric mean of the FITC signal, relative to antibody binding to hCD27, which was set at 100%.
Description for F28A: as §1, §2
Description for G16A: as §1, §2
Description for H36A: as §1, §2
Description for H60A: as §1, §2
Description for K17A: as §1, §2
Description for P8A: as §1, §2
Description for Q15A: as §1, §2
Description for S63A: as §1, §2
Description for W13A: as §1, §2

Consider 1F5 hIgG1 (antibody), for which, in experiment [1], the fold higher EC50 compared to 131AVH6VL6-hIgG1 was determined as 5 fold.

B1: hCD27.15-6B (humanized hCD27.15, human IgG4, Clone 6B) (antibody, V domains shown)
VH: QVQLVQSGAEVKKPGASVKVSCKASGFIIKATYMHWVRQAPGQRLEWMGRIDPANGETKYDPKFQVRVTITADTSASTAYMELSSLRSEDTAVYYCARYAWYFDVWGQGTLVTVSS
VL: DIQMTQSPSSLSASVGDRVTITCRASENIYSFLAWYQQKPGKAPKLLIYHAKTLAEGVTSRFSGSGSGTDFTLTISSLQPEDSATYYCQHYYGSPLTFGQGTRLEIKR
notes: humanized version of hCD27.15 from WO2012/004367 with identical CDR regions; also called hCD27.15 (humanized 6B); hCD27.15 6B humanized antibody
For B1, the “% of WT hCD27 binding (geo mean FITC)” value with W13A was determined as 71.4%; with H36A, 122%; with H60A, 82.6%; with Q15A, 98.6%; with D43A, 31%; in the experiment with P8A it was 63%. The “% of WT hCD27 binding (geo mean FITC)” value with G16A came to 141%; with S63A, 104%; in the experiment with K17A, 120%; with F28A it was 59.4%.
